Where a chain is given by its changes, count along the chain named. Blank lines part the entries; values can stand above or below the binder they belong to.
What was measured:
[1] = biological target: T1, Retinoblastoma protein (Rb), endogenous in the cells used (UniProt P06400 2-928); assay: IP with anti-Rb (G99-2005) from transfected HEK 293 extracts, anti-V5 western
T1 construct: also called endogenous Rb; total Rb
T1 sequence (looked up): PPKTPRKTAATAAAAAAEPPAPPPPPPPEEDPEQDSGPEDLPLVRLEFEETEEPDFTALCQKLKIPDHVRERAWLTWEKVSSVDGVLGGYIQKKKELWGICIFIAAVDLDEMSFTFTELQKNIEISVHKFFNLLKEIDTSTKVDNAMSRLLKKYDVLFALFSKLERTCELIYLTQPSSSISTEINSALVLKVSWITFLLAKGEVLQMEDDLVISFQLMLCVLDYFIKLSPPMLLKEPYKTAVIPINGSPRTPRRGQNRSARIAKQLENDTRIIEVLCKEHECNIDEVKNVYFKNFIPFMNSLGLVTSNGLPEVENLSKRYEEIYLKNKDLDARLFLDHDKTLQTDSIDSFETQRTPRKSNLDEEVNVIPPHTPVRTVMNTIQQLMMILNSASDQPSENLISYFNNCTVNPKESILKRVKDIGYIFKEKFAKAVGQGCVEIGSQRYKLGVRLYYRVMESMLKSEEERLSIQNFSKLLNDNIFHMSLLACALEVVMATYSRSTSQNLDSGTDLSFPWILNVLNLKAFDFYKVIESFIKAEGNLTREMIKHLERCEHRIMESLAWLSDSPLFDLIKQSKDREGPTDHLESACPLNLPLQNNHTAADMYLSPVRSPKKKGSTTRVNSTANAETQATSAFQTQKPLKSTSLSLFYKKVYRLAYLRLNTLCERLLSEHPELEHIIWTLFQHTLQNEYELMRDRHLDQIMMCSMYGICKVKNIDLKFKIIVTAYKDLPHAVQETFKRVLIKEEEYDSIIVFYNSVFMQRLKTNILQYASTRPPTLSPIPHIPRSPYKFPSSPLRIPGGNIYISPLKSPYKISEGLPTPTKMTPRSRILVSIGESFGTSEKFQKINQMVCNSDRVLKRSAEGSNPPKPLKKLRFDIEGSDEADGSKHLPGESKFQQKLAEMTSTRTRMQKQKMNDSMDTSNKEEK
Procedure: (§1) Immunoprecipitation and Immunoblotting-1×10⁶ HEK 293 cells were seeded onto a T-150 flask. 24 hours later, cells were transfected with 15 μg of the indicated plasmids. 48 hrs post transfection, cells were harvested, washed twice with cold PBS, and lysed with MPER (Pierce) containing 1× protease inhibitor cocktail (HALT, Pierce). Lysates were centrifuged at 4° C. for 30 minutes at 16,000 g to remove particulate material. The supernatant was precleared for 2 hours with protein A-agarose (Roche). The pre-cleared cell lysates were mixed with the indicated antibodies and protein A- or protein G-agarose (Roche) and incubated at 4° C. overnight. The next day, the reaction mixture was washed three times with cold PBS, boiled for 3 minutes and eluted in 2×SDS buffer. The eluted materials were subsequently analyzed by immunoblotting with the indicated antibodies.
While pp32 inhibits transformation, pp32r1 (ANP32C) and pp32r2 (ANP32D), both highly homologous to pp32 at the protein level (87.7% and 89.3% respectively) are tumorigenic (Kadkol, S. S., Brody, J. R., Pevsner, J., Bai, J., and Pasternack, G. R. (1999) Nature Med. 5, 275-279). Therefore, the possibility of an interaction between these family members and Rb was explored. pp32r1 and r2 were V5-epitope tagged and overexpressed in HEK 293 cells. HEK 293 cells were transfected with pp32V5, pp32r1V5, pp32r2V5 or LacZV5 expression vectors as indicated. Equal amounts of cell extracts were precipitated with anti-Rb (G99-2005) antibody and analysed by western blotting with anti-V5 antibody. Equal amounts of cell lysates were immunoprecipitated with anti-Rb and immunoblotted with anti-V5.

[2] = biological target: T2, WT-LP (wild-type large pocket fragment of RB, amino acids 379-928) (UniProt P06400 379-928); assay: cotransfection in HEK 293, IP with anti-V5, western with anti-Rb (851)
T2 construct: range 379-928; Expressed by cotransfection in HEK 293 cells; Construct from Knudsen et al., 1996; also called Rb large pocket fragment
T2 sequence (looked up): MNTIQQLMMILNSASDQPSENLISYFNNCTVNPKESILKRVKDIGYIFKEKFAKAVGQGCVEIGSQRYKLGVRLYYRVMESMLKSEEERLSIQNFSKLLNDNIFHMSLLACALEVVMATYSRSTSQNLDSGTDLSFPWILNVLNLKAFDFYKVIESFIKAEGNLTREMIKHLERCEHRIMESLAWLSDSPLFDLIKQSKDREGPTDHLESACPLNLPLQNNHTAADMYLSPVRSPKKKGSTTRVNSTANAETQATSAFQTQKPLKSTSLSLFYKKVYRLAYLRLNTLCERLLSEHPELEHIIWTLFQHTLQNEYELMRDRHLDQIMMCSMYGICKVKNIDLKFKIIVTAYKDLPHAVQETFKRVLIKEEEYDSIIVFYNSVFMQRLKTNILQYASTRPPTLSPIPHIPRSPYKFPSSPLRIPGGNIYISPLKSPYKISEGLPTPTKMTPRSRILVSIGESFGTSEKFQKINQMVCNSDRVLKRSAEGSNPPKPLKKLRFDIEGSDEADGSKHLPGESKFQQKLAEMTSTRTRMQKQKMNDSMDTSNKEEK
Source text: (§2) Equal amounts of cell extracts were precipitated with anti-V5 antibody. Upper panel, the presence of WT-LP or PSM2T-LP in immunoprecipitates was probed by western blot analysis using anti-Rb antibody (851). The right-hand arrow indicates the position of the Rb large pocket fragment. The lower band present in all three lanes is immunoglobulin heavy chain, which serves as a loading control. Middle panel, anti-V5 immunoprecipitates were subjected to western blot analysis with anti-V5 antibody to confirm pp32V5 immunoprecipitation. Lower panel, cell extracts were subjected to western blotting with anti-Rb antibody (851) to confirm expression of WT-LP and PSM2T-LP.
as §1, with “The next day, the reaction mixture was washed three times with cold PBS, boiled for 3 minutes and eluted in 2×SDS buffer.” left out, “antibodies. […]” for “antibodies.”

[3] = biological target: T3, PSM2T-LP (double T821A/T826A large pocket mutant of RB) (UniProt P06400 379-928); assay: as above
T3 construct: range 379-928; Expressed by cotransfection in HEK 293 cells
T3 sequence (looked up): T2 sequence (looked up) with T443A, T448A
Source text: as §2
as §1, with “The next day, the reaction mixture was washed three times with cold PBS, boiled for 3 minutes and eluted in 2×SDS buffer.” left out, “antibodies. […]” for “antibodies.”

B1: pp32r1V5 (V5-epitope tagged pp32r1, ANP32C) (other, UniProt O43423 1-234, looked up, not shown: small tags and cut ends)
chain: MEMGRRIHSELRNRAPSDVKELALDNSRSNEGKLEALTDEFEELEFLSKINGGLTSISDLPKLKLRKLELRVSGGLEVLAEKCPNLTHLYLSGNKIKDLSTIEPLKQLENLKSLDLFNCEVTNLNDYGENVFKLLLQLTYLDSCYWDHKEAPYSDIEDHVEGLDDEEEGEHEEEYDEDAQVVEDEEGEEEEEEGEEEDVSGGDEEDEEGYNDGEVDGEEDEEELGEEERGQKRK
notes: Overexpressed in HEK 293 cells
binding result [1]: no binding

B3: V5-epitope tagged pp32 (pp32V5) (other, not shown: small tags and cut ends)
chain: MEMGRRIHLELRNRTPSDVKELVLDNSRSNEGKLEGLTDEFEELEFLSTINVGLTSIANLPKLNKLKKLELSDNRVSGGLEVLAEKCPNLTHLNLSGNKIKDLSTIEPLKKLENLKSLDLFNCEVTNLNDYRENVFKLLPQLTYLDGYDRDDKEAPDSDAEGYVEGLDDEEEDEDEEEYDEDAQVVEDEEDEDEEEEGEEEDVSGEEEEDEEGYNDGEVDDEEDEEELGEEERGQKRKREPEDEGEDDD
notes: Expressed by transient transfection in HEK 293 (or NIH 3T3) cells and tested in cell extracts; also called V5-tagged pp32
binding result [2]: binds
binding result [3]: no binding

Second part, the binder after the results:

binding result [1]: no binding
B2: pp32r2V5 (V5-epitope tagged pp32r2, ANP32D) (other, UniProt O95626 1-131, looked up, not shown: small tags and cut ends)
chain: MEMGKWIHLELRNRTPSDVKELFLDNSQSNEGKLEGLTDEFEELELLNTINIGLTSIANLPKLNKLKKLELSSNRASVGLEVLAEKCPNLIHLNLSGNKIKDLSTIEPLKKLENLESLDLFTCEVTNLNNY
notes: as for B1

binding result [1]: no binding
B4: pp32Δ201-360V5 (other, not shown: small tags and cut ends)
chain: MEMGRRIHLELRNRTPSDVKELVLDNSRSNEGKLEGLTDEFEELEFLSTINVGLTSIANLPKLNKLFNCEVTNLNDYRENVFKLLPQLTYLDGYDRDDKEAPDSDAEGYVEGLDDEEEDEDEEEYDEDAQVVEDEEDEDEEEEGEEEDVSGEEEEDEEGYNDGEVDDEEDEEELGEEERGQKRKREPEDEGEDDD
notes: also called pp32D201-360V5

Source: patent publication US20070141062A1 (published 2007)
